Measured values published in US20220162583.

Experiments:
Assay in all cases: cell_activity
[1] = tested on: nd5 mito-nickase left TALE-FokI; settings: nearly 30%; with atp8 nickase
[2] = tested on: nd4 mito-nickase (1) right TALE-FokI; settings: zebrafish embryos; both nd4 nickase pairs co-injected
[3] = tested on: nd4 mito-nickase (2) left TALE-FokI; settings: zebrafish embryos; both nd4 nickase pairs co-injected
[4] = tested on: atp8 mito-nickase left TALE-FokI; settings: nearly 30%; with nd5 nickase
[5] = tested on: nd4 mito-nickase (1) left TALE-FokI; settings: zebrafish embryos; both nd4 nickase pairs co-injected
[6] = tested on: nd4 mitoTALE nuclease right; settings: with nd5 and atp8 nickases; deletions also with nuclease alone
[7] = tested on: nd4 mito-nickase (2) right TALE-FokI; settings: zebrafish embryos; both nd4 nickase pairs co-injected
[8] = tested on: nd4 mitoTALE nuclease left; settings: with nd5 and atp8 nickases; deletions also with nuclease alone
[9] = tested on: nd5 mito-nickase right TALE-FokI; settings: nearly 30%; with atp8 nickase
[10] = tested on: atp8 mito-nickase right TALE-FokI; settings: nearly 30%; with nd5 nickase

“GCTAGATGTGGTTGG (double strand) [nd5 nickase left site]” gave an activity (% embryos with deletion) [1] of 30.

“TTACACCTAATTCCT (double strand) [nd4 nickase (1) right site]” was tested, and the activity (% embryos with deletion) [2] was 50.

“ACGAGTTAGAAGCAT (double strand) [nd4 nickase (2) left site]” gave an activity (% embryos with deletion) [3] of 50.

“TAGGTTGAATGTGAT (double strand) [atp8 nickase left site]” was tested, and the activity (% embryos with deletion) [4] was 30.

Sequence “AAGTTCTGGTTTTAA (double strand) [nd4 nickase (1) left site]” has an activity (% embryos with deletion) [5] of 50.

In the case of “TATATTCGAAGCTAC (double strand) [nd4 nuclease right site]”, the activity (% embryos with deletion) [6] was > 90.

For “GACTAAAATGAACCT (double strand) [nd4 nickase (2) right site]”, the activity (% embryos with deletion) [7] was 50.

In the case of “CGGGTAATAATGATT (double strand) [nd4 nuclease left site]”, the activity (% embryos with deletion) [8] was > 90.

“AGGGCTAATGATAGT (double strand) [nd5 nickase right site]” gave an activity (% embryos with deletion) [9] of 30.

Sequence “TCCTTACTATTATTC (double strand) [atp8 nickase right site]” has an activity (% embryos with deletion) [10] of 30.
